B1: NbhmMMRm8.67 (VHH)
VHH: QVQLQESGGGLVQAGDSLRLSCLATGSMFSINAWGWYRQAPGKQRELVASITSGGGSTEYAESVKGRFTISRDSAKNMLYLQMNSLRPEDTAVYYCNAERWDGYALGYSPNHGSGHRPYNYWGQGTQVTVSS
notes: Only tested as periplasmic extract in PE-ELISA; clone carries C-terminal HA and 6xHis tag
B2: NbhmMMRm25.86 (VHH)
VHH: QVQLQESGGGLVQPGGSLRLSCAGSGFTVSTSMINWARQVPGKELEWLVDVLPSGSTYYADPVKGRFTISRDNAQNTIYLQMNYLKPEDTAIYYCAINRETMPPFRGQGTQVTVSS
notes: as for B1
B3: NbhmMMRm18.63 (VHH)
VHH: QVQLQESGGGLVQPGGSLRLSCAPSGSIISINAMAWYRQAPGKERELVAAISSGGSTYYADSVKGRFTISGDIAKNLLWLQMNSLKPEDTAMYYCAPGGGWRPGAWGQGTQVTVSS
notes: as for B1
B4: NbhmMMRm13.89 (VHH)
VHH: QVQLQESGGGLVQPGGSLRLSCAASGSIFSINAWGWYRQAPGKQRELVAEITSSGSTNYADSVKGRFTISGDNAKNSVYLHMNNLEPEDTAVYYCKAVAVTFTTPRSDYWGRGTQVTVSS
notes: as for B1
B5: NbhmMMRm27.95 (VHH)
VHH: QVQLQESGGRLGAAGGSLRLSCTASGFPFNIYPMSWVRQAPGKGFEWVSYISHGGTTTDYSDAVKGRFTISRDNAKNRLYLQMDSLKPEDTAVYFCAQGYARLMTDSELVRGQGTQVTVSS
notes: as for B1

Molecular target: T1, Recombinant human MMR (R&D systems) (human, UniProt P22897 19-1383)
T1 construct: Antigen of the PE-ELISA and the SPR; also called hMMR; recombinant hMMR
T1 sequence: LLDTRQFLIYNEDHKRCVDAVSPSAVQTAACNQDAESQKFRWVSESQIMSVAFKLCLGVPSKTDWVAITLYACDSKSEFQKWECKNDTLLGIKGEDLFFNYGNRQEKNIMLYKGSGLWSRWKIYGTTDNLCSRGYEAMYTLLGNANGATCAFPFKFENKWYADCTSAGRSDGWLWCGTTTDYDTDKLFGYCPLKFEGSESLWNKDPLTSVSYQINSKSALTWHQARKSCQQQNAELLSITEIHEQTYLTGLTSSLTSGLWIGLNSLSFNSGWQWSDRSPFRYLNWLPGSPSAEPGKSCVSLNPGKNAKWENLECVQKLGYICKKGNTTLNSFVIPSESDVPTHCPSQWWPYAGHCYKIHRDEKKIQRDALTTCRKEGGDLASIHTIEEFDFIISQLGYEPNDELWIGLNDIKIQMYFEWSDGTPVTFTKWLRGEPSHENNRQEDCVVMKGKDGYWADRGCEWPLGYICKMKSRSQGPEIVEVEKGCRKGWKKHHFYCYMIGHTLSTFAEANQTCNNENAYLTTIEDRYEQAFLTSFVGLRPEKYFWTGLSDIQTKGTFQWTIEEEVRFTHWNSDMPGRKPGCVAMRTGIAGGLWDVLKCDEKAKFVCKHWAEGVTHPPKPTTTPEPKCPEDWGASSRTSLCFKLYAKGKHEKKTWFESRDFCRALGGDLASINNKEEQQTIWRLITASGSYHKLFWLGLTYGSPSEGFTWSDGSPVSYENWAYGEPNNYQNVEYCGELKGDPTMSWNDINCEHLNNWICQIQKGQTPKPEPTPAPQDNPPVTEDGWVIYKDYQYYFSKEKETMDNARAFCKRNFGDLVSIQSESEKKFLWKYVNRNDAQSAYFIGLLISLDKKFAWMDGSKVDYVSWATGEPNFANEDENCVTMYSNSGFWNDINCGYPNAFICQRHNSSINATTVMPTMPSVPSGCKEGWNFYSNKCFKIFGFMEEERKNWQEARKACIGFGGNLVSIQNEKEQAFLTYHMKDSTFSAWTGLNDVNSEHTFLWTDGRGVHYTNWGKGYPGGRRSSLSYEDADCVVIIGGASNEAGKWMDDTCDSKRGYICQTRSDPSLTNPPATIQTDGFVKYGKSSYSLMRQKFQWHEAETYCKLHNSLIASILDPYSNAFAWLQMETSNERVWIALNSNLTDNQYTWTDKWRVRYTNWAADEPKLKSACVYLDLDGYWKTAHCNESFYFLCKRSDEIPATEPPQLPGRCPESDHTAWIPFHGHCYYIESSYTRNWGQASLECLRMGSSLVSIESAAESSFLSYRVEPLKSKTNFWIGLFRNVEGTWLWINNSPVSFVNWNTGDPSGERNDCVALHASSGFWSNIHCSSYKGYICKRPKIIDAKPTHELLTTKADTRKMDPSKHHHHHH
Assay: PE-ELISA: periplasmic extract of the clone on plate-coated human MMR, OD405; background = irrelevant milk-blocking proteins
Procedure: (§1) Specific sdAb phages were enriched by several consecutive rounds of in vitro selection on antigen coated to wells of microtiter plates (Nunc). For isolation of human/mouse MMR cross-reactive Nbs, screening was performed using human and mouse MMR alternatingly. Bound phage particles were eluted with 100 mM triethylamine (pH 11.0), immediately neutralized with 1 M Tris-HCl (pH 7.4) and used to infect E. coli TG1 cells. Individual colonies were picked and expression of recombinant sdAb-M13 protein III by addition of 1 mM isopropyl-β-D-thiogalac-topyranoside (IPTG). The periplasmic extract of each clone was subsequently tested in ELISA for human MMR recognition with non-specific antigen coated wells serving as a negative control. Human/mouse MMR cross-reactive Nbs were also screened in a similar fashion against mouse MMR, only clones reactive with both human and mouse antigens were withheld as cross-reactive Nbs. Each ELISA was performed on plates coated with 1 μg/ml MMR in 100 mM NaHCO₃ buffer pH=8.8. After coating the plates are washed with PBS+0.05% TWEEN®-20 (PBST) and blocked for 2 hours with PBS+0.05% TWEEN® 20+2% non-fat dry milk powder (Nestle) (PBSM). The PE extracts are then incubated for 1 hour on the plate and then washed with PBST followed by 1 hour incubation of 0.5 μg/ml mouse anti-HA tag antibody (16B12, Covance) in PBSM. After washing with PBST, 1.5 μg/ml alkaline phosphatase conjugated anti-mouse antibody (Sigma) in PBSM in added to the plate for 1 hour followed by PBST washing. Finally, the ELISA is developed using 2 mg/ml alkaline phosphatase substrate (Sigma) in AP-buffer (100 mM NaCl, 50 mM MgCl₂, 100 mM Tris pH=9.5) and the optical density signal at 405 nm is measured.
(§2) Next, anti-human/mouse MMR cross-reactive sdAbs were generated (see also Material and Method section). The anti-human/anti mouse MMR phage bank was alternatingly screened on human and mouse MMR for a total of four rounds, resulting in up to 100-fold enrichments for hMMR/mMMR reactive phages from the second panning round. Therefore, 188 colonies from the second and third rounds were selected for PE-expression. These PE-extracts were used in PE-ELISAs to determine which clones react effectively to MMR, clones were selected after the ELISA on hMMR (FIG. 2). These clones were then screened for binding on mouse MMR (FIG. 3).

| Binder | binding result |
| --- | --- |
| B1 | binds |
| B2 | binds |
| B3 | binds |
| B4 | binds |
| B5 | binds |

Molecular target: T2, Recombinant mouse MMR (R&D systems) (mouse, UniProt Q61830 20-1388)
T2 construct: Antigen of the PE-ELISA and the SPR; also called mMMR; recombinant mMMR
T2 sequence: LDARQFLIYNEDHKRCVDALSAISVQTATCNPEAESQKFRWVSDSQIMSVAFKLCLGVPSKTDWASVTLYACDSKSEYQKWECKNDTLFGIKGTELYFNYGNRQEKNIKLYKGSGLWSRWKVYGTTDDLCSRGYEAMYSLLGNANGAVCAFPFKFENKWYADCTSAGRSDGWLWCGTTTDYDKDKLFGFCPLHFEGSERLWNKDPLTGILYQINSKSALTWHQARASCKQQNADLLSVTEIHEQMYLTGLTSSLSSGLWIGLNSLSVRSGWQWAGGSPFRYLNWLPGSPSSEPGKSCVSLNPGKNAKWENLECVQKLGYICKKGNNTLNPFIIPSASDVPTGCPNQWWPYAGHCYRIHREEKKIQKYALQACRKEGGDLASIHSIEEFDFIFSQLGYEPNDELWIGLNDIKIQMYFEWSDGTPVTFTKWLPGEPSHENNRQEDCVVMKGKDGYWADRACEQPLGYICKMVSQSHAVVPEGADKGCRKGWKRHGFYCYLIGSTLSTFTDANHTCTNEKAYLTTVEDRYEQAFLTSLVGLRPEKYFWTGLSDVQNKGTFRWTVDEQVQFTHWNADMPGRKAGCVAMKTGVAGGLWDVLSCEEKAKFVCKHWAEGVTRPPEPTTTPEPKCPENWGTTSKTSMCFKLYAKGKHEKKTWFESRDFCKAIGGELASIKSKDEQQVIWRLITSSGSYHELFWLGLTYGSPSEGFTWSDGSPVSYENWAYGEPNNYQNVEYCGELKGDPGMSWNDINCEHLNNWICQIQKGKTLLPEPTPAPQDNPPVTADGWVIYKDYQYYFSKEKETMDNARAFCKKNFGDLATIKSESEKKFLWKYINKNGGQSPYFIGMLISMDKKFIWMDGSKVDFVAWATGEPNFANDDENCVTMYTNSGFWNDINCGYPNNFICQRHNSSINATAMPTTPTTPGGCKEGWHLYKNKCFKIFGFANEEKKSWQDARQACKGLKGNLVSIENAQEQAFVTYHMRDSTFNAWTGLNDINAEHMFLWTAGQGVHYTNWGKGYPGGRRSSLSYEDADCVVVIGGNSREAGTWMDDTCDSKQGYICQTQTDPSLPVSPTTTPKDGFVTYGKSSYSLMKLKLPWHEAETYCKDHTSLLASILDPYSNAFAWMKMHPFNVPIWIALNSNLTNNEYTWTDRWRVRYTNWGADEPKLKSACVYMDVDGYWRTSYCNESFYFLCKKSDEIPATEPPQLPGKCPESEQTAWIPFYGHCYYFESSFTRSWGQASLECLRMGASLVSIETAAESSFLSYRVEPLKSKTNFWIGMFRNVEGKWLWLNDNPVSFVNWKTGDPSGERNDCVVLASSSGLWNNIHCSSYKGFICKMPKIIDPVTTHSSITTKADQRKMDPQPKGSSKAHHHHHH
Assay: PE-ELISA: periplasmic extract of the clone on plate-coated mouse MMR, OD405; background = irrelevant milk-blocking proteins
Procedure: as §1, §2

| Binder | binding result |
| --- | --- |
| B1 | binds |
| B2 | binds |
| B3 | binds |
| B4 | binds |
| B5 | binds |

Source: patent publication US20150093336A1 (VIB VZW, published 2015)
